Molecular target: alpha 1 antitrypsin (α1AT), P01009
Sequence (P01009 whole entry, looked up): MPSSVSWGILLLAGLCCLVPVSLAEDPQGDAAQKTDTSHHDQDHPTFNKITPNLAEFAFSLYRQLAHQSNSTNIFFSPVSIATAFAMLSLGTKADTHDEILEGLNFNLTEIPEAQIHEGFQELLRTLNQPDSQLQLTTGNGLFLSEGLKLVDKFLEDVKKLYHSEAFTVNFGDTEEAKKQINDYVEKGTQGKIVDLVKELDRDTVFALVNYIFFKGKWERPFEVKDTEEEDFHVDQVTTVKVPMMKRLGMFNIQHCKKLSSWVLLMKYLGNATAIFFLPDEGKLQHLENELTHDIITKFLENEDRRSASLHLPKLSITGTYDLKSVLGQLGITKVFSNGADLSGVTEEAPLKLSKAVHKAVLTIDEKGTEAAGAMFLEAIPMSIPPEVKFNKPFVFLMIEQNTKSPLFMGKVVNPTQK

B1: neutrophil proteinase 3 (PR3), purified native human PR3 (protein)
chain: IVGGHEAQPHSRPYMASLQMRGNPGSHFCGGTLIHPSFVLTAAHCLRDIPQRLVNVVLGAHNVRTQEPTQQHFSVAQVFLNNYDAENKLNDVLLIQLSSPANLSASVATVQLPQQDQPVPHGTQCLAMGWGRVGAHDPPAQVLQELNVTVVTFFCRPHNICTFVPRRKAGICFGDSGGPLICDGIIQGIDSFVIWGCATRLFPDFFTRVALYVDWIRSTLR
In the case of B1, the “enzymatic activity of PR3 (fluorescent substrate Abz-VADnVADYQ-YNO2)” value is reported as “the addition of alpha 1 anti-trypsin (1AT) which is a natural PR3 inhibitor did not induce any degradation of the PR3 substrate”.

Reference: patent US20230203197
